# Source: US20150203577A1 (Chugai, published 2015)
# Residue numbers refer to the chain shown, from its start. Where “and” joins values, the source holds several entries; their conditions need not be identical. Equal entries are not always repeated.
# T1: mouse FcγRIII (mouse, UniProt P08508 31-215)
# T1 construct: also called mFcγRIII; mFcgRIII
# T1 chain: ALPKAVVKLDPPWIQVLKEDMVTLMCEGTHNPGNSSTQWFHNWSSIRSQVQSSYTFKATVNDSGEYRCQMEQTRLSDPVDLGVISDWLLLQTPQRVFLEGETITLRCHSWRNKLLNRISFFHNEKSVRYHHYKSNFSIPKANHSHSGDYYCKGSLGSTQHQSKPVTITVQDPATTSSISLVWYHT
# T2: mouse FcγRII (mouse, UniProt P08101 30-210)
# T2 construct: also called mFcγRII; mFcgRII
# T2 sequence: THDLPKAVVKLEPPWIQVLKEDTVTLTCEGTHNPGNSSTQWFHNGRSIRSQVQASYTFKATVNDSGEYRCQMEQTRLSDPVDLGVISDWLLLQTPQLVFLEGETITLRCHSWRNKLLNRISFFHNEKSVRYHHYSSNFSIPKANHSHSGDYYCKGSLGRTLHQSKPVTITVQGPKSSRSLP
# T3: mouse FcγRIII (mouse, UniProt P08508 31-215)
# T3 construct: Extracellular domain with C-terminal His tag, made in FreeStyle 293 cells; also called mFcγRIII; mFcgRIII
# T3 chain: T1 chain
# T4: mouse FcγRII (mouse, UniProt P08101 30-210)
# T4 construct: Extracellular domain with C-terminal His tag, made in FreeStyle 293 cells; also called mFcγRII; mFcgRII
# T4 sequence: T2 sequence
# B1: H237-MB110/MRAL-k0 (antibody, mouse IgG1, kappa)
# heavy: QVQLQESGPGLVKPSETLSLTCAVSGHSISHDHAWSWVRQPPGEGLEWIGFISYSGITNYNPSLQGRVTISRDNSKNTLYLQMNSLRAEDTAVYYCARSLARTTAMDYWGEGTLVTVSSAKTTPPSVYPLAPGSAAQTNSMVTLGCLVKGYFPEPVTVTWNSGSLSSGVHTFPAVLQSDLYTLSSSVTVPSSTWPSETVTCNVAHPASSTKVDKKIVPRDCGCKPCICTVPEVSDVFIFPPKPKDVLTITLTPKVTCVVVDISKDDPEVQFSWFVDDVEVHTAQTQPREEQFNSTFRSVSELPIMHQDWLNGKEFKCRVNSAAFPAPIEKTISKTKGRPKAPQVYTIPPPKEQMAKDKVSLTCMITDFFPEDITVEWQWNGQPAENYKNTQPIMDTDGSYFVYSKLNVQKSNWEAGNTFTCSVLHEGLHNHHTEKSLSHSPGK
# light: not shown
# notes: copies: 2 + 2
# B2: MB251 (antibody, mouse IgG1, kappa)
# heavy: B1 heavy with D235S, F292W
# light: not shown
# notes: copies: 2 + 2
# B3: MB052 (antibody, mouse IgG1, kappa)
# heavy: B1 heavy with P231V, D235S
# light: not shown
# notes: copies: 2 + 2
# B4: MB139 (antibody, mouse IgG1, kappa)
# heavy: B1 heavy with D235S, V236Q
# light: not shown
# notes: copies: 2 + 2
# B5: MB132 (antibody, mouse IgG1, kappa)
# heavy: B1 heavy with D235S, V236H
# light: not shown
# notes: copies: 2 + 2
# B6: MB161 (antibody, mouse IgG1, kappa)
# heavy: B1 heavy with D235S, F237W
# light: not shown
# notes: copies: 2 + 2
# B7: MB143 (antibody, mouse IgG1, kappa)
# heavy: B1 heavy with D235S, V236W
# light: not shown
# notes: copies: 2 + 2
# B8: MB129 (antibody, mouse IgG1, kappa)
# heavy: B1 heavy with D235S, V236E
# light: not shown
# notes: copies: 2 + 2
# B9: MB053 (antibody, mouse IgG1, kappa)
# heavy: B1 heavy with P231W, D235S
# light: not shown
# notes: copies: 2 + 2
# B10: MB111 (antibody, mouse IgG1, kappa)
# heavy: B1 heavy with D235E
# light: not shown
# notes: copies: 2 + 2
# B11: MB199 (antibody, mouse IgG1, kappa)
# heavy: B1 heavy with D235S, S263A
# light: not shown
# notes: copies: 2 + 2
# B12: MB040 (antibody, mouse IgG1, kappa)
# heavy: B1 heavy with P231F, D235S
# light: not shown
# notes: copies: 2 + 2
# B13: MB103 (antibody, mouse IgG1, kappa)
# heavy: B1 heavy with S234Q, D235S
# light: not shown
# notes: copies: 2 + 2
# B14: MB118 (antibody, mouse IgG1, kappa)
# heavy: B1 heavy with D235M
# light: not shown
# notes: copies: 2 + 2
# B15: MB054 (antibody, mouse IgG1, kappa)
# heavy: B1 heavy with P231Y, D235S
# light: not shown
# notes: copies: 2 + 2
# B16: MB188 (antibody, mouse IgG1, kappa)
# heavy: B1 heavy with D235S, I262L
# light: not shown
# notes: copies: 2 + 2
# B17: MB093 (antibody, mouse IgG1, kappa)
# heavy: B1 heavy with S234E, D235S
# light: not shown
# notes: copies: 2 + 2
# B18: MB121 (antibody, mouse IgG1, kappa)
# heavy: B1 heavy with D235Q
# light: not shown
# notes: copies: 2 + 2
# B19: MB045 (antibody, mouse IgG1, kappa)
# heavy: B1 heavy with P231L, D235S
# light: not shown
# notes: copies: 2 + 2
# B20: MB126 (antibody, mouse IgG1, kappa)
# heavy: B1 heavy with D235Y
# light: not shown
# notes: copies: 2 + 2
# B21: MB039 (antibody, mouse IgG1, kappa)
# heavy: B1 heavy with P231E, D235S
# light: not shown
# notes: copies: 2 + 2
# B22: MB102 (antibody, mouse IgG1, kappa)
# heavy: B1 heavy with S234P, D235S
# light: not shown
# notes: copies: 2 + 2
# B23: MB261 (antibody, mouse IgG1, kappa)
# heavy: B1 heavy with D235S, S294L
# light: not shown
# notes: copies: 2 + 2
# B24: MB162 (antibody, mouse IgG1, kappa)
# heavy: B1 heavy with D235S, F237Y
# light: not shown
# notes: copies: 2 + 2
# B25: H237-MB687/MRAL-k0 (antibody, mouse IgG1, kappa)
# heavy: B1 heavy with T229E, V230P, S234E, D235L
# light: not shown
# notes: copies: 2 + 2
# B26: H237-MB657/MRAL-k0 (antibody, mouse IgG1, kappa)
# heavy: B1 heavy with T229E, V230P, P231N, S234E, D235F
# light: not shown
# notes: copies: 2 + 2
# Target: T1, mouse FcγRIII
# Test: SPR Biacore 4000, KD ratio
# Procedure: (§1) Each altered antibody was analyzed for its interaction with each Fcγ receptor prepared above using Biacore T100 (GE Healthcare Japan Corp.), Biacore T200 (GE Healthcare Japan Corp.), Biacore A100, or Biacore 4000. The running buffer used was HBS-EP+ (GE Healthcare Japan Corp.). The assay temperature was set to 25° C. The sensor chips used were chips prepared by immobilizing Protein L (ACTIGEN or BioVision) onto Series S Sensor Chip CM5 (GE Healthcare Japan Corp.) or Series S Sensor Chip CM4 (GE Healthcare Japan Corp.) by the amine coupling method.
# (§2) In order to calculate the KD value of each altered antibody for FcγR, kinetic analysis was conducted according to the following method: first, the antibody of interest was captured onto any of these chips and allowed to interact with mFcγR diluted with a running buffer. For the obtained sensorgram, the assay results were globally fit into the 1:1 Langmuir binding model using Biacore Evaluation Software to calculate an association rate constant ka (L/mol/s) and a dissociation rate constant kd (1/s). From these values, the dissociation constant KD (mol/L) was calculated.
row,Binder,relative mFcγRIII-binding activity (mIgG1 = 1) [fold]
1,B1,4.45
2,B2,1.23
3,B3,1.2
4,B4,1.2
5,B5,1.39
6,B6,1.13
7,B7,6.32
8,B8,2.42
9,B9,1.02
10,B10,1.11
11,B11,1.19
12,B12,1.17
13,B13,1.05
14,B14,0.99
15,B15,1.11
16,B16,1
17,B17,0.56
18,B18,0.94
19,B19,0.9
20,B20,0.94
21,B21,1.29
22,B22,2.37
23,B23,1.81
24,B24,1.2

# Target: T2, mouse FcγRII
# Test: SPR Biacore 4000, KD ratio
# Procedure: as §1, §2
row,Binder,relative mFcγRII-binding activity (mIgG1 = 1) [fold]
1,B1,15.1
2,B2,1.49
3,B3,1.36
4,B4,1.54
5,B5,2.12
6,B6,1.47
7,B7,7.42
8,B8,6.19
9,B9,1.36
10,B10,5.01
11,B11,1.48
12,B12,1.47
13,B13,1.27
14,B14,1.74
15,B15,1.75
16,B16,1.16
17,B17,2.09
18,B18,1.48
19,B19,1.2
20,B20,1.58
21,B21,3.27
22,B22,2.62
23,B23,2.11
24,B24,1.4

# Target: T3, mouse FcγRIII
# Test: SPR (Biacore), KD of H237-mIgG1/MRAL-k0 (same run) / KD of variant
# Procedure: as §1, §2
row,Binder,relative mFcγRIII-binding activity (mIgG1 = 1) [fold]
1,B25,0.1
2,B26,0.09

# Target: T4, mouse FcγRII
# Test: as above
# Procedure: as §1, §2
row,Binder,relative mFcγRII-binding activity (mIgG1 = 1) [fold]
1,B25,0.94

# Target: T1, mouse FcγRIII
# Test: SPR Biacore T200, KD ratio
# From the text: (§3) The antibody H chain variable region used was the variable region H237 (SEQ ID NO: 1) of the H chain VH3-IgG1 of the anti-IL-6 receptor antibody Fv4-IgG1 described in WO2009/125825. The antibody L chain commonly used was the L chain MRAL-k0 (SEQ ID NO: 2) of the anti-IL-6 receptor antibody tocilizumab. […] The resulting variant group was designated as MB110 variants. These variants were expressed and purified by the method of Reference Example 1 and evaluated for their binding to mFcγRII and mFcγRIII by the method of Reference Example 2 using Biacore T200.
# as §1, §2
Binder,Relative mFcγRIII-binding activity (MB110 = 1) [fold],relative mFcγRIII-binding activity (mIgG1 = 1) [fold]
B1,1,4

# Target: T2, mouse FcγRII
# Test: SPR Biacore T200, KD ratio
# From the text: as §3, §1, §2
Binder,Relative mFcγRII-binding activity (MB110 = 1) [fold],relative mFcγRII-binding activity (mIgG1 = 1) [fold]
B1,1,12.3

# Target: T3, mouse FcγRIII
# Test: SPR (Biacore), antibody captured on Protein L
# Procedure: as §1, §2
row,Binder,Kd
1,B25,5320 nM
2,B26,3480 nM and 5870 nM

# Target: T4, mouse FcγRII
# Test: SPR (Biacore), antibody captured on Protein L
# Procedure: as §1, §2
row,Binder,Kd
1,B25,345 nM
2,B26,118 nM and 211 nM
